Data published in patent EP4682166A1 (Guangzhou Enmai Biotechnology Co., Ltd, dated 2026).
Read-outs that look alike come from different tables or passages of the source.

T1: human NMI (N-myc Interacting protein), recombinant protein (human, UniProt Q13287 1-307, limits assumed)
T1 construct: Gene ID: 9111; also called hNMI; antigen
T1 sequence (looked up): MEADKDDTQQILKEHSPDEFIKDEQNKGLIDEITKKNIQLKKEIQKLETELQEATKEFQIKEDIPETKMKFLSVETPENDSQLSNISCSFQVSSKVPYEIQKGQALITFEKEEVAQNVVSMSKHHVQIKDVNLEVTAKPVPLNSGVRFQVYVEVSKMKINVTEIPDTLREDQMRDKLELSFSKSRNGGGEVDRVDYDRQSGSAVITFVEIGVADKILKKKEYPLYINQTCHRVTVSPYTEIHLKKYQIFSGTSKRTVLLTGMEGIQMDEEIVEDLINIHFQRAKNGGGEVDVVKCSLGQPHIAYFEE


How the values were obtained:
[1] = biological target: T1, human NMI (N-myc Interacting protein), …; test: ELISA EC50 against parent 240B10-1
[2] = biological target: T1, human NMI (N-myc Interacting protein), …; test: ELISA EC50 against parent 98G10
[3] = biological target: T1, human NMI (N-myc Interacting protein), …; test: ELISA, binding to hNMI
[4] = biological target: T1, human NMI (N-myc Interacting protein), …; test: ELISA EC50 against parent 98G10; remark: listed apart in the source
[5] = biological target: T1, human NMI (N-myc Interacting protein), …; test: ELISA, binding to hNMI; remark: listed apart in the source

Binder	Fold decrease in affinity [1]	also measured
240B10-1 mutant D27K (VH) (antibody, V domains shown) VH: QSLEESGGRLVTPGGSLTLTCTVSGIKLSSYTMGWVRQAPGKGLEYIGIISGGGRTYYASWAKGRFTISKTSSTTVDLKVTSLTTEDTATYFCARIYTLWGQGTLVTVSS VL: QVLTQTLASVSAAVGGTVTINCQSSQSVYNNDYLAWFQQKSGQPPKQLIHSASKLASGVPSRFKGSGSGTQFTLTINDVQCDDAATYYCLGGYDCYSADCNVFGGGTEVVVK	> 500 fold	–
240B10-1 mutant N30E (VL) (antibody, V domains shown) VH: QSLEESGGRLVTPGGSLTLTCTVSGIDLSSYTMGWVRQAPGKGLEYIGIISGGGRTYYASWAKGRFTISKTSSTTVDLKVTSLTTEDTATYFCARIYTLWGQGTLVTVSS VL: QVLTQTLASVSAAVGGTVTINCQSSQSVYENDYLAWFQQKSGQPPKQLIHSASKLASGVPSRFKGSGSGTQFTLTINDVQCDDAATYYCLGGYDCYSADCNVFGGGTEVVVK	> 500 fold	–
240B10-1 mutant G52R (VH) (antibody, V domains shown) VH: QSLEESGGRLVTPGGSLTLTCTVSGIDLSSYTMGWVRQAPGKGLEYIGIISRGGRTYYASWAKGRFTISKTSSTTVDLKVTSLTTEDTATYFCARIYTLWGQGTLVTVSS VL: QVLTQTLASVSAAVGGTVTINCQSSQSVYNNDYLAWFQQKSGQPPKQLIHSASKLASGVPSRFKGSGSGTQFTLTINDVQCDDAATYYCLGGYDCYSADCNVFGGGTEVVVK	> 500 fold	–
240B10-1 mutant G52Q (VH) (antibody, V domains shown) VH: QSLEESGGRLVTPGGSLTLTCTVSGIDLSSYTMGWVRQAPGKGLEYIGIISQGGRTYYASWAKGRFTISKTSSTTVDLKVTSLTTEDTATYFCARIYTLWGQGTLVTVSS VL: QVLTQTLASVSAAVGGTVTINCQSSQSVYNNDYLAWFQQKSGQPPKQLIHSASKLASGVPSRFKGSGSGTQFTLTINDVQCDDAATYYCLGGYDCYSADCNVFGGGTEVVVK	> 500 fold	–
240B10-1 mutant D27P (VH) (antibody, V domains shown) VH: QSLEESGGRLVTPGGSLTLTCTVSGIPLSSYTMGWVRQAPGKGLEYIGIISGGGRTYYASWAKGRFTISKTSSTTVDLKVTSLTTEDTATYFCARIYTLWGQGTLVTVSS VL: QVLTQTLASVSAAVGGTVTINCQSSQSVYNNDYLAWFQQKSGQPPKQLIHSASKLASGVPSRFKGSGSGTQFTLTINDVQCDDAATYYCLGGYDCYSADCNVFGGGTEVVVK	> 500 fold	–
240B10-1 mutant G52K (VH) (antibody, V domains shown) VH: QSLEESGGRLVTPGGSLTLTCTVSGIDLSSYTMGWVRQAPGKGLEYIGIISKGGRTYYASWAKGRFTISKTSSTTVDLKVTSLTTEDTATYFCARIYTLWGQGTLVTVSS VL: QVLTQTLASVSAAVGGTVTINCQSSQSVYNNDYLAWFQQKSGQPPKQLIHSASKLASGVPSRFKGSGSGTQFTLTINDVQCDDAATYYCLGGYDCYSADCNVFGGGTEVVVK	> 500 fold	–
240B10-1 mutant G52E (VH) (antibody, V domains shown) VH: QSLEESGGRLVTPGGSLTLTCTVSGIDLSSYTMGWVRQAPGKGLEYIGIISEGGRTYYASWAKGRFTISKTSSTTVDLKVTSLTTEDTATYFCARIYTLWGQGTLVTVSS VL: QVLTQTLASVSAAVGGTVTINCQSSQSVYNNDYLAWFQQKSGQPPKQLIHSASKLASGVPSRFKGSGSGTQFTLTINDVQCDDAATYYCLGGYDCYSADCNVFGGGTEVVVK	> 500 fold	–
98G10-1 (mutated antibody of Table 17-7) (antibody, V domains shown, also called 98G10 C80P (VL)) VH: QEQLEESGGDLVKPEGSLTLTCTASGFSFSASYWICWVRQAPGKGLEWIACIYGGSSGSAYYASWAKGRFTISKTSSTTVTLQMTSLTAADTATYFCARAGYYNYGSAGDIYPSSFKLWGPGTLVTVSS VL: DIVMTQTPASVEAAVGGTVTINCQASQSISTALAWYQQKPGQPPKLLIYTASKVASGVPSRFSGSGSGTQFTLTISDLEPADAATYYCQNYYYSSSSITFGGGTEVVVK	–	Fold decrease in affinity [2]: 1.05 fold; EC50 [3]: 0.173 nM
98G10-L-3 (antibody, V domains shown, also called 98G10 Y93Q (VL)) VH: QEQLEESGGDLVKPEGSLTLTCTASGFSFSASYWICWVRQAPGKGLEWIACIYGGSSGSAYYASWAKGRFTISKTSSTTVTLQMTSLTAADTATYFCARAGYYNYGSAGDIYPSSFKLWGPGTLVTVSS VL: DIVMTQTPASVEAAVGGTVTINCQASQSISTALAWYQQKPGQPPKLLIYTASKVASGVPSRFSGSGSGTQFTLTISDLECADAATYYCQNYYQSSSSITFGGGTEVVVK	–	Fold decrease in affinity [4]: 2.13 fold; EC50 [5]: 0.066 µg/mL
98G10-2 (antibody, V domains shown, also called 98G10 T81Y (VH)) VH: QEQLEESGGDLVKPEGSLTLTCTASGFSFSASYWICWVRQAPGKGLEWIACIYGGSSGSAYYASWAKGRFTISKTSSTTVYLQMTSLTAADTATYFCARAGYYNYGSAGDIYPSSFKLWGPGTLVTVSS VL: DIVMTQTPASVEAAVGGTVTINCQASQSISTALAWYQQKPGQPPKLLIYTASKVASGVPSRFSGSGSGTQFTLTISDLECADAATYYCQNYYYSSSSITFGGGTEVVVK	–	Fold decrease in affinity [2]: 0.29 fold; EC50 [3]: 0.0483 nM
98G10-3 (antibody, V domains shown, also called 98G10 T81Y (VH), C80P (VL)) VH: QEQLEESGGDLVKPEGSLTLTCTASGFSFSASYWICWVRQAPGKGLEWIACIYGGSSGSAYYASWAKGRFTISKTSSTTVYLQMTSLTAADTATYFCARAGYYNYGSAGDIYPSSFKLWGPGTLVTVSS VL: DIVMTQTPASVEAAVGGTVTINCQASQSISTALAWYQQKPGQPPKLLIYTASKVASGVPSRFSGSGSGTQFTLTISDLEPADAATYYCQNYYYSSSSITFGGGTEVVVK	–	Fold decrease in affinity [2]: 1.06 fold; EC50 [3]: 0.176 nM

The next lines start with results.

Fold decrease in affinity [1]	Binder	also measured
> 500 fold	240B10-1 mutant S30D (VH) (antibody, V domains shown) VH: QSLEESGGRLVTPGGSLTLTCTVSGIDLSDYTMGWVRQAPGKGLEYIGIISGGGRTYYASWAKGRFTISKTSSTTVDLKVTSLTTEDTATYFCARIYTLWGQGTLVTVSS VL: QVLTQTLASVSAAVGGTVTINCQSSQSVYNNDYLAWFQQKSGQPPKQLIHSASKLASGVPSRFKGSGSGTQFTLTINDVQCDDAATYYCLGGYDCYSADCNVFGGGTEVVVK	–
> 500 fold	240B10-1 mutant S30A (VH) (antibody, V domains shown) VH: QSLEESGGRLVTPGGSLTLTCTVSGIDLSAYTMGWVRQAPGKGLEYIGIISGGGRTYYASWAKGRFTISKTSSTTVDLKVTSLTTEDTATYFCARIYTLWGQGTLVTVSS VL: QVLTQTLASVSAAVGGTVTINCQSSQSVYNNDYLAWFQQKSGQPPKQLIHSASKLASGVPSRFKGSGSGTQFTLTINDVQCDDAATYYCLGGYDCYSADCNVFGGGTEVVVK	–
> 500 fold	240B10-1 mutant S29E (VH) (antibody, V domains shown) VH: QSLEESGGRLVTPGGSLTLTCTVSGIDLESYTMGWVRQAPGKGLEYIGIISGGGRTYYASWAKGRFTISKTSSTTVDLKVTSLTTEDTATYFCARIYTLWGQGTLVTVSS VL: QVLTQTLASVSAAVGGTVTINCQSSQSVYNNDYLAWFQQKSGQPPKQLIHSASKLASGVPSRFKGSGSGTQFTLTINDVQCDDAATYYCLGGYDCYSADCNVFGGGTEVVVK	–
> 500 fold	240B10-1 mutant S30K (VH) (antibody, V domains shown) VH: QSLEESGGRLVTPGGSLTLTCTVSGIDLSKYTMGWVRQAPGKGLEYIGIISGGGRTYYASWAKGRFTISKTSSTTVDLKVTSLTTEDTATYFCARIYTLWGQGTLVTVSS VL: QVLTQTLASVSAAVGGTVTINCQSSQSVYNNDYLAWFQQKSGQPPKQLIHSASKLASGVPSRFKGSGSGTQFTLTINDVQCDDAATYYCLGGYDCYSADCNVFGGGTEVVVK	–
> 500 fold	240B10-1 mutant S30E (VH) (antibody, V domains shown) VH: QSLEESGGRLVTPGGSLTLTCTVSGIDLSEYTMGWVRQAPGKGLEYIGIISGGGRTYYASWAKGRFTISKTSSTTVDLKVTSLTTEDTATYFCARIYTLWGQGTLVTVSS VL: QVLTQTLASVSAAVGGTVTINCQSSQSVYNNDYLAWFQQKSGQPPKQLIHSASKLASGVPSRFKGSGSGTQFTLTINDVQCDDAATYYCLGGYDCYSADCNVFGGGTEVVVK	–
> 500 fold	240B10-1 mutant S29Q (VH) (antibody, V domains shown) VH: QSLEESGGRLVTPGGSLTLTCTVSGIDLQSYTMGWVRQAPGKGLEYIGIISGGGRTYYASWAKGRFTISKTSSTTVDLKVTSLTTEDTATYFCARIYTLWGQGTLVTVSS VL: QVLTQTLASVSAAVGGTVTINCQSSQSVYNNDYLAWFQQKSGQPPKQLIHSASKLASGVPSRFKGSGSGTQFTLTINDVQCDDAATYYCLGGYDCYSADCNVFGGGTEVVVK	–
> 500 fold	240B10-1 mutant N30T (VL) (antibody, V domains shown) VH: QSLEESGGRLVTPGGSLTLTCTVSGIDLSSYTMGWVRQAPGKGLEYIGIISGGGRTYYASWAKGRFTISKTSSTTVDLKVTSLTTEDTATYFCARIYTLWGQGTLVTVSS VL: QVLTQTLASVSAAVGGTVTINCQSSQSVYTNDYLAWFQQKSGQPPKQLIHSASKLASGVPSRFKGSGSGTQFTLTINDVQCDDAATYYCLGGYDCYSADCNVFGGGTEVVVK	–
> 500 fold	240B10-1 mutant S29D (VH) (antibody, V domains shown) VH: QSLEESGGRLVTPGGSLTLTCTVSGIDLDSYTMGWVRQAPGKGLEYIGIISGGGRTYYASWAKGRFTISKTSSTTVDLKVTSLTTEDTATYFCARIYTLWGQGTLVTVSS VL: QVLTQTLASVSAAVGGTVTINCQSSQSVYNNDYLAWFQQKSGQPPKQLIHSASKLASGVPSRFKGSGSGTQFTLTINDVQCDDAATYYCLGGYDCYSADCNVFGGGTEVVVK	–
